What all share (experiment): pull-down
The target of assay [1] is T1, GST-tagged Mgs1* (D31A) (S. cerevisiae, UniProt P40151 1-587, D31A).
T1 sequence: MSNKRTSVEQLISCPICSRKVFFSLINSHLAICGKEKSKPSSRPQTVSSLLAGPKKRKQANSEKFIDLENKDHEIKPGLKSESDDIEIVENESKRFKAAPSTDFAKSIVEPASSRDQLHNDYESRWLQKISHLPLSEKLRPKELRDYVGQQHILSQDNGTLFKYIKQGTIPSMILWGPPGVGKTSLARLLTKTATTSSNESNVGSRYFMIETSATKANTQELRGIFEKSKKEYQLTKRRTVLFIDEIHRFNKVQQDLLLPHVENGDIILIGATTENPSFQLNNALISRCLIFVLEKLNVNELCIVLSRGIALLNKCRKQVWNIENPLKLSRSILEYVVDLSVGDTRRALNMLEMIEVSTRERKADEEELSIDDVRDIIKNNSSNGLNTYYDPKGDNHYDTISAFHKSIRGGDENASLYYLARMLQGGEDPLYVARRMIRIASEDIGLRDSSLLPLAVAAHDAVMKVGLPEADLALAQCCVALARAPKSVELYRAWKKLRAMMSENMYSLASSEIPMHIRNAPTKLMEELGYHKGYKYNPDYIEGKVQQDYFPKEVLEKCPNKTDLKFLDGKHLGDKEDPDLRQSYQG

For assay [2], the target named is T2, GST-tagged Mgs1 (S. cerevisiae, UniProt P40151 1-587).
T2 sequence: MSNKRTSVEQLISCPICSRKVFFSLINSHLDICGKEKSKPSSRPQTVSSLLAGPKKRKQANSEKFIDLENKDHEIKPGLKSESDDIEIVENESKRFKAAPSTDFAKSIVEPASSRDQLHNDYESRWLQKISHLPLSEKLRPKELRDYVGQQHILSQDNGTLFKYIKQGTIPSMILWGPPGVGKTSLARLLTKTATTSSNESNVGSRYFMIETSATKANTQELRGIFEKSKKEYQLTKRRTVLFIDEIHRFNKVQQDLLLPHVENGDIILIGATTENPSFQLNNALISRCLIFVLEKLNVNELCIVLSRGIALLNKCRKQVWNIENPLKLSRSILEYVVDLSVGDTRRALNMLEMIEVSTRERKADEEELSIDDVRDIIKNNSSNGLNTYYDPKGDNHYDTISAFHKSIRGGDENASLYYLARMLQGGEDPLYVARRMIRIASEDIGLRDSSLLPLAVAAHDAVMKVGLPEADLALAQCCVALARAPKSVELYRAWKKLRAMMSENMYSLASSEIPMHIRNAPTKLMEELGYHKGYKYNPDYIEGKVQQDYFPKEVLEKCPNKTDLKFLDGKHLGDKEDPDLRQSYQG

Assay [3] addresses T1, GST-tagged Mgs1* (D31A). The source holds these as a separate data set.
For assay [4], the target named is T2, GST-tagged Mgs1. This is another data set of the same source.

Like-named read-outs stand apart in the source and are kept apart here.

B1: His6-tagged PCNA (natural protein)
chain: MLEAKFEEASLFKRIIDGFKDCVQLVNFQCKEDGIIAQAVDDSRVLLVSLEIGVEAFQEYRCDHPVTLGMDLTSLSKILRCGNNTDTLTLIADNTPDSIILLFEDTKKDRIAEYSLKLMDIDADFLKIEELQYDSTLSLPSSEFSKIVRDLSQLSDSINIMITKETIKFVADGDIGSGSVIIKPFVDMEHPETSIKLEMDQPVDLTFGAKYLLDIIKGSSLSDRVGIRLSSEAPALFQFDLKSGFLQFFLAPKFNDEE
B1: the binding result with GST-tagged Mgs1* (D31A) [1] and in the assay with GST-tagged Mgs1 [2] was “binds” throughout.

B2: untagged PCNA (unmodified) (natural protein)
chain: MLEAKFEEASLFKRIIDGFKDCVQLVNFQCKEDGIIAQAVDDSRVLLVSLEIGVEAFQEYRCDHPVTLGMDLTSLSKILRCGNNTDTLTLIADNTPDSIILLFEDTKKDRIAEYSLKLMDIDADFLKIEELQYDSTLSLPSSEFSKIVRDLSQLSDSINIMITKETIKFVADGDIGSGSVIIKPFVDMEHPETSIKLEMDQPVDLTFGAKYLLDIIKGSSLSDRVGIRLSSEAPALFQFDLKSGFLQFFLAPKFNDEE
On to B2, for which the binding result in the assay with GST-tagged Mgs1* (D31A) [3] and with GST-tagged Mgs1 [4] was “binds” in each case.

The record behind these values is article PMC3245944 (Nucleic Acids Research, 2011).
